Measurements reported in patent US12221480.

How the values were obtained:
[1] = target: recombinant human soluble γ2 δ3TCR-FC (wild type) (human) (UniProt B7Z8K6); assay: Octet, γ2δ3TCR-hFc captured on anti-human Fc biosensor; row antibody δ3-23 taken as first (saturating), column antibody as second; 5 µg/mL each
[2] = target: recombinant human soluble γ2 δ3TCR-FC (wild type) (human) (UniProt B7Z8K6); assay: Octet, γ2δ3TCR-hFc captured on anti-human Fc biosensor; row antibody δ3-58 taken as first (saturating), column antibody as second; 5 µg/mL each
[3] = target: recombinant human soluble γ2 δ3TCR-FC (wild type) (human) (UniProt B7Z8K6); assay: Octet, γ2δ3TCR-hFc captured on anti-human Fc biosensor; row antibody δ3-08 taken as first (saturating), column antibody as second; 5 µg/mL each
[4] = target: recombinant human soluble γ2 δ3TCR-FC (wild type) (human) (UniProt B7Z8K6); assay: Luminex beads; TCR-hFc captured by goat anti-human Fc; antibody titrated
[5] = target: γ2δ3 TCR-hFc mutant S11 (K79L, L82K, H88F in the Vδ3 chain) (human) (UniProt B7Z8K6); assay: as above
[6] = target: γ2δ3 TCR-hFc mutant S1 (D10N in the Vδ3 chain) (human) (UniProt B7Z8K6); assay: as above
[7] = target: γ2δ3 TCR-hFc mutant S7 (D57N, R65Q in the Vδ3 chain) (human) (UniProt B7Z8K6); assay: as above
[8] = target: γ2δ3 TCR-hFc mutant S3 (K79L, H88F in the Vδ3 chain) (human) (UniProt B7Z8K6); assay: as above
[9] = target: γ2δ3 TCR-hFc mutant S5 (D70N, E67Q in the Vδ3 chain) (human) (UniProt B7Z8K6); assay: as above
[10] = target: γ2δ3 TCR-hFc mutant S4 (E18Q in the Vδ3 chain) (human) (UniProt B7Z8K6); assay: as above
[11] = target: γ2δ3 TCR-hFc mutant S2 (D26N, K85L in the Vδ3 chain) (human) (UniProt B7Z8K6); assay: as above
[12] = target: γ2δ3 TCR-hFc mutant S10 (K3A, K79L, H88T in the Vδ3 chain) (human) (UniProt B7Z8K6); assay: as above
[13] = target: γ2δ3 TCR-hFc mutant S8 (K79L, E18Q, H88F in the Vδ3 chain) (human) (UniProt B7Z8K6); assay: as above
[14] = target: recombinant human soluble γ2 δ3TCR-FC (wild type) (human) (UniProt B7Z8K6); assay: Octet, γ2δ3TCR-hFc captured on anti-human Fc biosensor; row antibody δ3-31 taken as first (saturating), column antibody as second; 5 µg/mL each; self pair
[15] = target: γ2δ3 TCR-hFc mutant S6 (R75Q, R95Q in the Vδ3 chain) (human) (UniProt B7Z8K6); assay: Luminex beads; TCR-hFc captured by goat anti-human Fc; antibody titrated; extrapolated value, no saturation achieved
[16] = target: γ2δ3 TCR-hFc mutant S9 (E67Q, D70N, R75Q, R95Q, E97Q in the Vδ3 chain) (human) (UniProt B7Z8K6); assay: as above
[17] = target: recombinant human soluble γ2 δ3TCR-FC (wild type) (human) (UniProt B7Z8K6); assay: Octet, γ2δ3TCR-hFc captured on anti-human Fc biosensor; row antibody δ3-42 taken as first (saturating), column antibody as second; 5 µg/mL each

paired-competition value (Octet signal of the second antibody per paragraph 256) [1]: 0.4
paired-competition value (Octet signal of the second antibody per paragraph 256) [2]: 0.38
paired-competition value (Octet signal of the second antibody per paragraph 256) [3]: 0.44
EC50 [4]: 0.05 nM
EC50 [5]: 0.06 nM
EC50 [6]: 0.06 nM
EC50 [7]: 0.05 nM
EC50 [8]: 0.05 nM
EC50 [9]: 4.99 nM
EC50 [10]: 0.05 nM
EC50 [11]: 0.05 nM
EC50 [12]: 0.08 nM
EC50 [13]: 0.06 nM
paired-competition value (Octet signal of the second antibody per paragraph 256) [14]: 0.07
EC50 [15]: 44.4 nM
EC50 [16]: 37.7 nM
paired-competition value (Octet signal of the second antibody per paragraph 256) [17]: 0.37
B1: δ3-31 (antibody, V domains shown)
VH: DVQLQESGPDLVKPSQSLSLTCTVTGYSITSGYGWHWIRQFPGNKLEWMGYISFSGSNKYNPSLKSRISITRDTSKNQFFLQLNSVTTEDTATYYCANLDYWGQGTTLTVSS
VL: DIQMTQRTSSLSASLGDRVTISCSASQDITNYLHWFQQKPDGTVKLLIYYTSTLHSGVPSRFSGSGSGTDYSLTISNLEPEDIATYYCQQYSKLPYTFGGGTKLEITR
